Assay results taken from publication PMC7789494.

Substrate: O=C1C(Cl)=CC(=Nc2ccc(O)cc2)C=C1Cl
Experiment: purified protein
Assay type: biochemical, Phanerodontia chrysosporium
Conditions: 500 µM cellobiose, 50 mM sodium acetate pH 4.5, electron acceptor

B1: PcCDHTr (Phanerodontia chrysosporium) (protein)
chain: QSASQFTDPTTGFQFTGITDPVHDVTYGFVFPPLATSGAQSTEFIGEVVAPIASKWIGIALGGAMNNDLLLVAWANGNQIVSSTRWATGYVQPTAYTGTATLTTLPETTINSTHWKWVFRCQGCTEWNNGGGIDVTSQGVLAWAFSNVAVDDPSDPQSTFSEHTDFGFFGIDYSTAHSANYQNYLNGDSGNPTTTSTKPTSTSSSVTTGPTVSATPYDYIIVGAGPGGIIAADRLSEAGKKVLLLERGGPSTKQTGGTYVAPWATSSGLTKFDIPGLFESLFTDSNPFWWCKDITVFAGCLVGGGTSVNGALYWYPNDGDFSSSVGWPSSWTNHAPYTSKLSSRLPSTDHPSTDGQRYLEQSFNVVSQLLKGQGYNQATINDNPNYKDHVFGYSAFDFLNGKRAGPVATYLQTALARPNFTFKTNVMVSNVVRNGSQILGVQTNDPTLGPNGFIPVTPKGRVILSAGAFGTSRILFQSGIGPTDMIQTVQSNPTAAAALPPQNQWINLPVGMNAQDNPSINLVFTHPSIDAYENWADVWSNPRPADAAQYLANQSGVFAGASPKLNFWRAYSGSDGFTRYAQGTVRPGAASVNSSLPYNASQIFTITVYLSTGIQSRGRIGIDAALRGTVLTPPWLVNPVDKTVLLQALHDVVSNIGSIPGLTMITPDVTQTLEEYVDAYDPATMNSNHWVSSTTIGSSPQSAVVDSNVKVFGTNNLFIVDAGIIPHLPTGNPQGTLMSAAEQAAAKILALAGGP
notes: full two-domain flavocytochrome, native signal peptide (cleaved), untagged, secreted by Trichoderma reesei delta-xyr1; 83 kDa by SDS-PAGE
For B1, the Km was 4.31 ± 0.11 µM, the kcat was 24.4 ± 0.2 s⁻¹ and the kcat/Km was 5.66e+06 ± 159000 M⁻¹ s⁻¹.
